Laboratory results published in paper PMC5028032, “Linkage between Fitness of Yeast Cells and Adenylate Kinase Catalysis” (PLoS ONE, 2016).

Legend:
[1] = substrate: Nc1ncnc2c1ncn2[C@@H]1O[C@H](COP(=O)(O)OP(=O)(O)OP(=O)(O)O)[C@@H](O)[C@H]1O; experiment: purified protein; conditions: 300 μM AMP constant, 2 mM MgCl2, 80 mM KCl, 100 mM Tris pH 7.5, 20°C
[2] = substrate: Nc1ncnc2c1ncn2[C@@H]1O[C@H](COP(=O)(O)OP(=O)(O)OP(=O)(O)O)[C@@H](O)[C@H]1O; experiment: purified protein; format: biochemical, Saccharomyces cerevisiae; conditions: 300 μM AMP constant, 2 mM MgCl2, 80 mM KCl, 100 mM Tris pH 7.5, 20°C
[3] = 11 residues STGDMLSAAVK inserted between Lys40 and Ser41

B1: Adkeco (Escherichia coli K-12; INS40STGDMLSAAVK/R36S) (protein)
chain: MRIILLGAPGAGKGTQAQFIMEKYGIPQISTGDMLSAAVKSTGDMLSAAVKSGSELGKQAKDIMDAGKLVTDELVIALVKERIAQEDCRNGFLLDGFPRTIPQADAMKEAGINVDYVLEFDVPDELIVDRIVGRRVHAPSGRVYHVKFNPPKVEGKDDVTGEELTTRKDDQEETVRKRLVEYHQMTAPLIGYYSKEAEAGNTKYAKVDGTKPVAEVRADLEKILG
Km [1, 3]: 127 ± 30 µM | kcat [1, 3]: 2 s⁻¹ | kcat/Km [1, 3]: 20000 M⁻¹ s⁻¹

B2: Adkeco (Escherichia coli K-12; G56C) (protein)
chain: MRIILLGAPGAGKGTQAQFIMEKYGIPQISTGDMLRAAVKSGSELGKQAKDIMDACKLVTDELVIALVKERIAQEDCRNGFLLDGFPRTIPQADAMKEAGINVDYVLEFDVPDELIVDRIVGRRVHAPSGRVYHVKFNPPKVEGKDDVTGEELTTRKDDQEETVRKRLVEYHQMTAPLIGYYSKEAEAGNTKYAKVDGTKPVAEVRADLEKILG
Km [1]: 34 ± 2 µM | kcat [1]: 36 s⁻¹ | kcat/Km [1]: 1.04e+06 M⁻¹ s⁻¹

B3: Adkeco (Escherichia coli K-12; R36A) (protein)
chain: MRIILLGAPGAGKGTQAQFIMEKYGIPQISTGDMLAAAVKSGSELGKQAKDIMDAGKLVTDELVIALVKERIAQEDCRNGFLLDGFPRTIPQADAMKEAGINVDYVLEFDVPDELIVDRIVGRRVHAPSGRVYHVKFNPPKVEGKDDVTGEELTTRKDDQEETVRKRLVEYHQMTAPLIGYYSKEAEAGNTKYAKVDGTKPVAEVRADLEKILG
Km [1]: 193 ± 7 µM | kcat [1]: 19 s⁻¹ | kcat/Km [1]: 100000 M⁻¹ s⁻¹

B4: Adk1yeast (Saccharomyces cerevisiae S288C) (protein)
chain: SSESIRMVLIGPPGAGKGTQAPNLQERFHAAHLATGDMLRSQIAKGTQLGLEAKKIMDQGGLVSDDIMVNMIKDELTNNPACKNGFILDGFPRTIPQAEKLDQMLKEQGTPLEKAIELKVDDELLVARITGRLIHPASGRSYHKIFNPPKEDMKDDVTGEALVQRSDDNADALKKRLAAYHAQTEPIVDFYKKTGIWAGVDASQPPATVWADILNKLGKD
notes: full-length wild type, recombinant, 15N-enriched, purified as previously described
Km [2]: 71 ± 18 µM | kcat [2]: 520 ± 32 s⁻¹ | kcat/Km [2]: 7.29e+06 ± 470000 M⁻¹ s⁻¹
